Experimental data published in patent publication US5854025.
One block for each substance: values may come before it.

What was measured:
[1] = molecular target: type 2 IGF receptor on H35 (rat hepatoma) cells (rat); test: displacement of 125I-IGF-II from H35 cells (type 2 IGF receptor); refolded preparation
[2] = molecular target: type 2 IGF receptor on H35 (rat hepatoma) cells (rat); test: displacement of 125I-IGF-II from H35 cells (type 2 IGF receptor); secreted preparation
[3] = molecular target: insulin receptor on H35 cells (rat) (UniProt P15127); test: displacement of 125I-insulin from H35 cells (insulin receptor)
[4] = molecular target: type 2 IGF receptor on H35 (rat hepatoma) cells (rat); test: displacement of 125I-IGF-II from H35 cells (type 2 IGF receptor)

Chain of IGF-II (Q^37 Q^38) (ligand) (chain): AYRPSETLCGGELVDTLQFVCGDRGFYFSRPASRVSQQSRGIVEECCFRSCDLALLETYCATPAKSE
Chain of wild-type IGF-II, refolded material (made by the HRP fusion route, pSD28, cyanogen bromide cleavage and refolding) (ligand) (chain): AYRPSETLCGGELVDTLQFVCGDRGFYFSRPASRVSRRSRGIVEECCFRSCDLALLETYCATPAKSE

IC50 [1]: 0.06 µg/mL
IC50 [2]: 0.03 µg/mL
Substance: IGF-II (Q^37 Q^38) (ligand)

IC50 [3]: 0.0048 µg/mL
Substance: insulin (ligand)

IC50 [4]: 0.018 µg/mL
Substance: recombinant IGF-II from a commercial supplier (Bachem), reference standard (ligand)

IC50 [4]: 0.03 µg/mL
Substance: wild-type IGF-II, refolded material (made by the HRP fusion route, pSD28, cyanogen bromide cleavage and refolding) (ligand)
